Results as given in patent EP4813396A2 (Amphivena Therapeutics, Inc., dated 2026).
Positions count from the first letter of the chain named. Where “and” joins values, the source holds several entries; their conditions need not be identical. Equal entries are not always repeated.

B1: CD33/CD3 tandem diabody 17 (bispecific antibody)
chain: DIQMTQSPSSLSASVGDRVTITCRSSTGAVTTSNYANWVQQKPGKAPKALIGGTNKRAPGVPSRFSGSLIGDKATLTISSLQPEDFATYYCALWYSNLWVFGQGTKVEIKGGSGGSQVQLVQSGAEVKKPGESLKISCKGSGYSFTSYWIGWVRQMPGKGLEWMGIIYPGDSDTRYSPSFQGQVTISADKSISTAYLQWSSLKASDTAMYYCARHKRGSDAFDIWGQGTTVTVSSGGSGQSVLTQPPSVSGAPGQRVTISCTGSSSNIGAGYDVHWYQQLPGTAPKLLIYGNSNRPSGVPDRFSGSKSGTSASLAITGLQAEDEADYYCQSYDSSLSDVVFGGGTKLTVLGGSGGSEVQLVESGGGLVQPGGSLRLSCAASGFTFSTYAMNWVRQAPGKGLEWVGRIRSKYNNYATYYADSVKDRFTISRDDSKNSLYLQMNSLKTEDTAVYYCARHGNFGNSYVSYFAYWGQGTLVTVSSAAAGSHHHHHH
notes: Non-covalent homodimer; domain order 1; also called TandAb 17
B2: CD33/CD3 tandem diabody 19 (bispecific antibody)
chain: DIQMTQSPSSLSASVGDRVTITCRSSTGAVTTSNYANWVQQKPGKAPKALIGGTNKRAPGVPSRFSGSLIGDKATLTISSLQPEDFATYYCALWYSNLWVFGQGTKVEIKGGSGGSQVQLVQSGAEVKKPGASVKVSCKASGYTFTSYYMHWVRQAPGQGLEWMGIINPSGGSTSYAQKFQGRVTMTRDTSTSTVYMELSSLRSEDTAVYYCARDVVPAAIDYYGMDVWGQGTTVTVSSGGSGQSVLTQPPSASGTPGQRVTISCSGSSSNIGSNTVNWYQQLPGTAPKLLIYSDNQRPSGVPDRFSGSKSGSSASLAISGLQSDDEADYYCATWDDSLNGAVFGGGTKLTVLGGSGGSEVQLVESGGGLVQPGGSLRLSCAASGFTFSTYAMNWVRQAPGKGLEWVGRIRSKYNNYATYYADSVKDRFTISRDDSKNSLYLQMNSLKTEDTAVYYCARHGNFGNSYVSYFAYWGQGTLVTVSSAAAGSHHHHHH
notes: Non-covalent homodimer; domain order 1; also called TandAb 19
B3: CD33/CD3 tandem diabody 12 (bispecific antibody)
chain: DIQMTQSPSSLSASVGDRVTITCRSSTGAVTTSNYANWVQQKPGKAPKALIGGTNKRAPGVPSRFSGSLIGDKATLTISSLQPEDFATYYCALWYSNLWVFGQGTKVEIKGGSGGSQVQLVQSGAEVKKPGASVKVSCKASGYTFTSYDINWVRQAPGQGLEWMGWMNPNSGNTGFAQKFQGRVTMTRDTSTSTVYMELSSLRSEDTAVYYCARDRAVTDYYYGMDVWGQGTLVTVSSGGSGQSVLTQPPSASGTPGQRVTISCSGSRSNIGSNTVNWYQQLPGTAPKLLIYGNNQRPSGVPDRFSGSKSGTSASLAISGLQSEDEADYYCATWDDSLIGWVFGGGTKLTVLGGSGGSEVQLVESGGGLVQPGGSLRLSCAASGFTFSTYAMNWVRQAPGKGLEWVGRIRSKYNNYATYYADSVKDRFTISRDDSKNSLYLQMNSLKTEDTAVYYCARHGNFGNSYVSYFAYWGQGTLVTVSSAAAGSHHHHHH
notes: Non-covalent homodimer; domain order 1; also called TandAb 12
B4: CD33/CD3 tandem diabody 16 (bispecific antibody)
chain: B3 chain with V218N, Y222S, Y223L
notes: Non-covalent homodimer; domain order 1; also called TandAb 16
B5: CD33/CD3 tandem diabody 14 (bispecific antibody)
chain: B3 chain with V218N, Y221F, Y222S, T312S
notes: Non-covalent homodimer; domain order 1; also called TandAb 14

Tests used:
human CD33 on cells [1] = biological target: T1, human CD33 on cells (human, UniProt P20138 18-364); assay: cell-based or functional assay
human CD3 on T cells [2] = biological target: T2, human CD3 on T cells (human, UniProt P07766 23-207); assay: cell-based or functional assay
human CD33 on cells [3] = biological target: T1, human CD33 on cells; assay: flow cytometry, HL-60 cells
human CD33 on cells [4] = biological target: T1, human CD33 on cells; assay: flow cytometry, titration on KG-1 cells
human CD33 on cells [5] = biological target: T1, human CD33 on cells; assay: flow cytometry, titration on HL-60 cells
human CD33 on cells [6] = biological target: T1, human CD33 on cells; assay: flow cytometry, titration on U-937 cells
human CD3 on T cells [7] = biological target: T2, human CD3 on T cells; assay: flow cytometry, human T-cells (as headed in Table 10)
human CD3 on T cells [8] = biological target: T2, human CD3 on T cells; assay: flow cytometry, titration on human CD3+ T cells (Jurkat per paragraph 124/paragraph 125)
[9] = biological target: cynomolgus CD33 on CHO cells (cynomolgus monkey); assay: flow cytometry; KD on CHO-cynomolgus CD33 cells divided by KD on CHO-human CD33 cells
human CD33 on cells [10] = biological target: T1, human CD33 on cells; assay: cell-based or functional assay; remark: listed apart in the source
human CD33 on cells [11] = biological target: T1, human CD33 on cells; assay: cell-based or functional assay; remark: listed apart in the source
human CD33 on cells [12] = biological target: T1, human CD33 on cells; assay: cell-based or functional assay; remark: listed apart in the source
human CD33 on cells [13] = biological target: T1, human CD33 on cells; assay: cell-based or functional assay; remark: listed apart in the source

T2 sequence (P07766 23-207): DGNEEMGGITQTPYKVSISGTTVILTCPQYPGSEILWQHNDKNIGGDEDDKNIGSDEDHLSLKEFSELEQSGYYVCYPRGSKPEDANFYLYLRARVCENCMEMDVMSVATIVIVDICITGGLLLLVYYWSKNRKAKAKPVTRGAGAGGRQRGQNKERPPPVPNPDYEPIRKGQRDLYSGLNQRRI
T1 sequence (P20138 18-364): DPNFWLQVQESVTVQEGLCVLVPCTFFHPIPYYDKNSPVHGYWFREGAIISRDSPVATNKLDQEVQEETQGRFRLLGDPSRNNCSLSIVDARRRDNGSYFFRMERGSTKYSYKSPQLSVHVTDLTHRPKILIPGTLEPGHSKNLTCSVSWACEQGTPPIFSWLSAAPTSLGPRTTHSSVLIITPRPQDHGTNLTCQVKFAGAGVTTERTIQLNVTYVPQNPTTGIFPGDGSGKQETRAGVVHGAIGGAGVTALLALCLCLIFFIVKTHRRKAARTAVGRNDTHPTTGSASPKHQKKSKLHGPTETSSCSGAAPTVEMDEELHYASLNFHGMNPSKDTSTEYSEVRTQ

Binder	EC50 on HL-60 [pM] (cytotoxicity) (human CD33 on cells [1])	CD25 Induction EC50 (pM) (human CD3 on T cells [2])	CD69 Induction EC50 (pM) (human CD3 on T cells [2])	T cell Proliferation in PBMC EC50 (pM) (human CD3 on T cells [2])	Kd (human CD33 on cells [3]) [nM]	Kd (human CD33 on cells [4]) [nM]	Kd (human CD33 on cells [5]) [nM]	Kd (human CD33 on cells [6]) [nM]	Kd (human CD3 on T cells [7]) [nM]	Kd (human CD3 on T cells [8]) [nM]	KD ratio cynoCD33/ huCD33 [9]	IC50, lysis of KG-1 cells with human T cells (E:T 5:1, 24 h) (human CD33 on cells [10]) [pM]	EC50 [pM (pg/mL)] on human CD33+ target cell lines: HL-60 (cytotoxicity, E:T 5:1, 20-24 h) (human CD33 on cells [11])	EC50 [pM (pg/mL)] on human CD33+ target cell lines: KG-1 (cytotoxicity, E:T 5:1, 20-24 h) (human CD33 on cells [11])	EC50 [pM (pg/mL)] on human CD33+ target cell lines: U-937 (cytotoxicity, E:T 5:1, 20-24 h) (human CD33 on cells [11])	EC50 [pM (pg/mL)] on human CD33+ target cell lines: mean of HL-60, U-937, KG-1 (human CD33 on cells [11])	EC50 [pM] mean, cytotoxicity on BV-173 cells (human CD33 on cells [12]) [pM]	EC50 [pM] mean, cytotoxicity on CHO-CD33 cells (human CD33 on cells [12]) [pM]	EC50 [pM] mean, cytotoxicity on HL-60 cells (human CD33 on cells [12]) [pM]	EC50 [pM] mean, cytotoxicity on K562 cells (human CD33 on cells [12]) [pM]	other results
B1	18.4	30	114	30	5	52.5	5	24.4	3.3	3.3	1.9										
B2	5.7	9	5	6	2.8	3.6	2.8	5.4	6.3	6.3	37.3	~5									
B3	1.3	6	3	2	0.3	0.9	0.3	0.5	1.5	1.5	1.7	~0.01	1.3 pM and 137 pg/mL	1.2 pM and 126 pg/mL	0.8 pM and 84 pg/mL	1.1 pM and 116 pg/mL	1.4	11.8	1.4	4.5	EC50 [pM] mean, cytotoxicity on KASUMI-1 cells (human CD33 on cells [12]): 1.3 pM; EC50 [pM] mean, cytotoxicity on KG-1 cells (human CD33 on cells [12]): 1 pM; EC50 [pM] mean, cytotoxicity on RPMI-8226 cells (human CD33 on cells [12]): 14 pM; EC50 [pM] mean, cytotoxicity on THP-1 cells (human CD33 on cells [12]): 1.9 pM; EC50 [pM] mean, cytotoxicity on U-937 cells (human CD33 on cells [12]): 0.9 pM
B4	1.5	1	2	3	0.3	0.2	0.3	0.3	5.1	2.1	1.4	~0.5	1.5 pM and 158 pg/mL	1.8 pM and 189 pg/mL	1.9 pM and 200 pg/mL	1.7 pM and 179 pg/mL	3.2	24	1.6	4.8	IC50, lysis of KG-1 cells (separate experiment) (human CD33 on cells [10]): 0.005 nM; EC50 [pM] mean, cytotoxicity on KASUMI-1 cells (human CD33 on cells [12]): 2.4 pM; EC50 [pM] mean, cytotoxicity on KG-1 cells (human CD33 on cells [12]): 1.9 pM; EC50 [pM] mean, cytotoxicity on RPMI-8226 cells (human CD33 on cells [12]): 2.8 pM; EC50 [pM] mean, cytotoxicity on THP-1 cells (human CD33 on cells [12]): 6 pM; EC50 [pM] mean, cytotoxicity on U-937 cells (human CD33 on cells [12]): 1.3 pM; EC50 [pM], calcein release, HL-60 targets, E:T 25:1, incubation 30 min (human CD33 on cells [13]): 4.8 pM; EC50 [pM], calcein release, HL-60 targets, E:T 25:1, incubation 60 min (human CD33 on cells [13]): 2.5 pM; EC50 [pM], calcein release, HL-60 targets, E:T 25:1, incubation 120 min (human CD33 on cells [13]): 1.6 pM; EC50 [pM], calcein release, HL-60 targets, E:T 25:1, incubation 180 min (human CD33 on cells [13]): 1.6 pM; EC50 [pM], calcein release, HL-60 targets, E:T 25:1, incubation 240 min (human CD33 on cells [13]): 1.5 pM; EC50 [pM], calcein release, HL-60 targets, E:T 25:1, incubation 300 min (human CD33 on cells [13]): 1.6 pM
B5	1.6	10	7	6	0.3	0.3	0.3	1.2	2.1	2.1	1		1.6 pM and 168 pg/mL	2.6 pM and 273 pg/mL	3.6 pM and 378 pg/mL	2.6 pM and 273 pg/mL					
